Data as given in the supplement of paper PMC10567573.

B1: C2CD2L (parent)
chain: LTLKVLRSSSCGDTELLGQATLPV

Variants of: B1
Assay: protein stability index of a GFP-peptide fusion (GPS, HEK-293T) (PSI 1-6); higher = more stable
Settings: c terminus: a fixed tail appended
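Note: lentivirally expressed fusions sorted by FACS into six bins by GFP to DsRed ratio, PSI derived from sequencing read proportions per bin multiplied by bin number.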

| Variant | protein stability index |
| --- | --- |
| LTLKVLRSSSEGDTELLGQATLPV | 1.66 |
| LTLKVLRSSSAGDTELLGQATLPV | 1.55 |
| LTLKVLRSSSVGDTELLGQATLPV | 2.53 |
| LTLKVLRSSSIGDTELLGQATLPV | 4.68 |
| LTLKVLRSSSLGDTELLGQATLPV | 2.78 |
| LTLKVLRSSSQGDTELLGQATLPV | 1.43 |
| LTLKVLRSSSMGDTELLGQATLPV | 2.48 |
| LTLKVLRSSSSGDTELLGQATLPV | 3.41 |
| LTLKVLRSSSTGDTELLGQATLPV | 2.36 |
| LTLKVLRSSSRGDTELLGQATLPV | 1.9 |
| LTLKVLRSSSDGDTELLGQATLPV | 1.8 |
| LTLKVLRSSSKGDTELLGQATLPV | 2.11 |
| LTLKVLRSSSHGDTELLGQATLPV | 1.63 |
| LTLKVLRSSSYGDTELLGQATLPV | 3.16 |
| LTLKVLRSSSPGDTELLGQATLPV | 1.34 |
| LTLKVLRSSSNGDTELLGQATLPV | 2.04 |
| LTLKVLRSSSGGDTELLGQATLPV | 2.58 |
| LTLKVLQSSSCGDTELLGQATLPV | 1.33 |
| LTLKVLLSSSCGDTELLGQATLPV | 3.52 |
| LTLKVLGSSSCGDTELLGQATLPV | 1.37 |
| LTLKVLTSSSCGDTELLGQATLPV | 2.88 |
| LTLKVLDSSSCGDTELLGQATLPV | 2.02 |
| LTLKVLPSSSCGDTELLGQATLPV | 2.08 |
| LTLKVLSSSSCGDTELLGQATLPV | 1.13 |

| Variant | protein stability index |
| --- | --- |
| LTLKVLNSSSCGDTELLGQATLPV | 1.19 |
| LTLKVLHSSSCGDTELLGQATLPV | 2.61 |
| LTLKVLKSSSCGDTELLGQATLPV | 3.05 |
| LTLKVLESSSCGDTELLGQATLPV | 1.96 |
| LTLKVLVSSSCGDTELLGQATLPV | 1.85 |
| LTLKVLCSSSCGDTELLGQATLPV | 3.71 |
| LTLKVLMSSSCGDTELLGQATLPV | 2.32 |
| LTLKVLRSSSCGNTELLGQATLPV | 2.85 |
| LTLKVLRSSSCGFTELLGQATLPV | 3.62 |
| LTLKVLRSSSCGCTELLGQATLPV | 3.28 |
| LTLKVLRSSSCGGTELLGQATLPV | 4.31 |
| LTLKVLRSSSCGITELLGQATLPV | 3.63 |
| LTLKVLRSSACGDTELLGQATLPV | 3.7 |
| LTLKVLRSSDCGDTELLGQATLPV | 2 |
| LTLKVLRSSICGDTELLGQATLPV | 1.76 |
| LTLKVLRSSYCGDTELLGQATLPV | 3.53 |
| LTLKVLRSSVCGDTELLGQATLPV | 3.73 |
| LTLKVLRSSTCGDTELLGQATLPV | 3.38 |
| LTLKVLRSSKCGDTELLGQATLPV | 3.12 |
| LTLKVLRSSPCGDTELLGQATLPV | 2.45 |
| LTLKVLRSSMCGDTELLGQATLPV | 5.18 |
| LTLKVLRSSECGDTELLGQATLPV | 1.75 |
| LTLKVLRSSWCGDTELLGQATLPV | 4.07 |
| LTLKVLRSSCCGDTELLGQATLPV | 3.45 |

| Variant | protein stability index |
| --- | --- |
| LTLKVLRSSFCGDTELLGQATLPV | 2.93 |
| LTLKVLRSSNCGDTELLGQATLPV | 1.67 |
| LTLKVLRSSLCGDTELLGQATLPV | 2.44 |
| LTLKVLRSSQCGDTELLGQATLPV | 1.78 |
| LTLKVLRSSHCGDTELLGQATLPV | 3 |
| LTLKVLRSESCGDTELLGQATLPV | 1.1 |
| LTLKVLRSHSCGDTELLGQATLPV | 2.94 |
| LTLKVLRSFSCGDTELLGQATLPV | 2.54 |
| LTLKVLRSLSCGDTELLGQATLPV | 1.16 |
| LTLKVLRSRSCGDTELLGQATLPV | 3.44 |
| LTLKVLRSDSCGDTELLGQATLPV | 1.72 |
| LTLKVLRSCSCGDTELLGQATLPV | 1.76 |
| LTLKVLRSQSCGDTELLGQATLPV | 1.43 |
| LTLKVLRSISCGDTELLGQATLPV | 2.11 |
| LTLKVLRSNSCGDTELLGQATLPV | 1.82 |
| LTLKVLRSKSCGDTELLGQATLPV | 1.4 |
| LTLKVLRSPSCGDTELLGQATLPV | 1.71 |
| LTLKVLRSMSCGDTELLGQATLPV | 3.09 |
| LTLKVLRSWSCGDTELLGQATLPV | 3.38 |
| LTLKVLRSVSCGDTELLGQATLPV | 1.09 |
| LTLKVLRSASCGDTELLGQATLPV | 1.95 |
| LTLKVLRSSSCWDTELLGQATLPV | 3.06 |
| LTLKVLRSSSCYDTELLGQATLPV | 1.42 |
| LTLKVLRSSSCPDTELLGQATLPV | 1.82 |

| Variant | protein stability index |
| --- | --- |
| LTLKVLRSSSCNDTELLGQATLPV | 1.56 |
| LTLKVLRSSSCKDTELLGQATLPV | 2.95 |
| LTLKVLRSSSCEDTELLGQATLPV | 1.88 |
| LTLKVLRSSSCDDTELLGQATLPV | 2.05 |
| LTLKVLRSSSCSDTELLGQATLPV | 1.92 |
| LTLKVLRSSSCQDTELLGQATLPV | 2.12 |
| LTLKVLRSSSCADTELLGQATLPV | 1.66 |
| LTLKVLRSSSCRDTELLGQATLPV | 2.71 |
| LTLKVLRSSSCTDTELLGQATLPV | 1.82 |
| LTLKVLRSSSCVDTELLGQATLPV | 1.99 |
| LTLKVLRSSSCIDTELLGQATLPV | 2.27 |
| LTLKVLRSSSCMDTELLGQATLPV | 3.71 |
| LTLKVLRSSSCLDTELLGQATLPV | 2.82 |
| LTLKVLRSSSCFDTELLGQATLPV | 3.92 |
| LTLKVLRSSSCHDTELLGQATLPV | 1.97 |
| LTLKVLRESSCGDTELLGQATLPV | 1.72 |
| LTLKVLRRSSCGDTELLGQATLPV | 3.03 |
| LTLKVLRNSSCGDTELLGQATLPV | 3.13 |
| LTLKVLRMSSCGDTELLGQATLPV | 3.9 |
| LTLKVLRFSSCGDTELLGQATLPV | 4.03 |
| LTLKVLRWSSCGDTELLGQATLPV | 4.16 |
| LTLKVLRDSSCGDTELLGQATLPV | 1.93 |
